Patent US20200199241A1 (Chugai, published 2020)
Numbering of substitutions follows the chain as printed.

B1: IL6R-BP210/IL6R-L (antibody, human IgG1)
heavy: QVQLQESGPGLVKPSETLSLTCAVSGHSISHDHAWSWVRQPPGEGLEWIGFISYSGITNYNPSLQGRVTISRDNSKNTLYLQMNSLRAEDTAVYYCARSLARTTAMDYWGEGTLVTVSSASTKGPSVFPLAPSSKSTSGGTAALGCLVKDYFPEPVTVSWNSGALTSGVHTFPAVLQSSGLYSLSSVVTVPSSSLGTQTYICNVNHKPSNTKVDKKVEPKSCDKTHTCPPCPAPELLGDDSVFLFPPKPKDTLMISRTPEVTCVVVDVSDEDGEVKFNWYVDGVEVHNAKTKPREEQYNSTYRVVSVLTVLHQDWLNGKEYKCKVSNKALPRPIEKTISKAKGQPREPQVYTLPPSRDELTKNQVSLTCLVKGFYPSDIAVEWESNGQPENNYKTTPPVLDSDGSFFLYSKLTVDKSRWQQGNVFSCSVMHEALHNHYTQESLSLSP
light: DIQMTQSPSSLSASVGDRVTITCRASQDISSYLNWYQQKPGKAPKLLIYYTSRLHSGVPSRFSGSGSGTDFTFTISSLQPEDIATYYCQQGNTLPYTFGQGTKVEIK
notes: Anti-IL-6R human IgG1 variant; copies: 2 + 2
B2: IL6R-BP201/IL6R-L (antibody, human IgG1)
heavy: B1 heavy with E235D, D270H
light: B1 light
notes: as for B1
B3: IL6R-BP192/IL6R-L (antibody, human IgG1)
heavy: B1 heavy with E235D, D239G, Y298D, R332K
light: B1 light
notes: as for B1
B4: IL6R-BP204/IL6R-L (antibody, human IgG1)
heavy: B1 heavy with E235D, D239G, D270H, K328A
light: B1 light
notes: as for B1
B5: IL6R-BP193/IL6R-L (antibody, human IgG1)
heavy: B1 heavy with E235D, D239G, R332K
light: B1 light
notes: as for B1
B6: IL6R-BP202/IL6R-L (antibody, human IgG1)
heavy: B1 heavy with D270H, K328A
light: B1 light
notes: as for B1
B7: IL6R-BP199/IL6R-L (antibody, human IgG1)
heavy: B1 heavy with E235D, D239G, D270H, G273P, K328D
light: B1 light
notes: as for B1
B8: IL6R-BP212/IL6R-L (antibody, human IgG1)
heavy: B1 heavy with E235D, D239G, Y298D
light: B1 light
notes: as for B1
B9: IL6R-BP205/IL6R-L (antibody, human IgG1)
heavy: B1 heavy with E235D, D239G, D270H, Y298D
light: B1 light
notes: as for B1
B10: IL6R-2B002/IL6R-L (antibody, human IgG1)
heavy: B1 heavy with E235D, D239G, D270H, G273P, R332A
light: B1 light
notes: IgG1; Fc variant of IL6R-B3; copies: 2 + 2
B11: IL6R-BP142/IL6R-L (antibody, human IgG1)
heavy: B1 heavy with D239G, D270H, G273P, K328N, R332A
light: B1 light
notes: as for B10
B12: IL6R-BP136/IL6R-L (antibody, human IgG1)
heavy: B1 heavy with D239G, D270H, G273P, K328A, R332A
light: B1 light
notes: as for B10
B13: IL6R-BP144/IL6R-L (antibody, human IgG1)
heavy: B1 heavy with D270H, G273P, K328A, R332A
light: B1 light
B14: IL6R-BP132/IL6R-L (antibody, human IgG1)
heavy: B1 heavy with E235D, D239G, D270H, G273P, K328A, R332K
light: B1 light
B15: IL6R-BP145/IL6R-L (antibody, human IgG1)
heavy: B1 heavy with L236Y, D270H, G273P, R332A
light: B1 light
B16: IL6R-BP181/IL6R-L (antibody, human IgG1)
heavy: B1 heavy with E235D, D239G, D270H, K328A, R332K
light: B1 light
B17: IL6R-BP176/IL6R-L (antibody, human IgG1)
heavy: B1 heavy with E235D, D239G, D270H, G273P, K328D, R332K
light: B1 light
B18: IL6R-BP148/IL6R-L (antibody, human IgG1)
heavy: B1 heavy with E235D, L236Y, D270H, G273P, K328A, R332K
light: B1 light
B19: IL6R-BP129/IL6R-L (antibody, human IgG1)
heavy: B1 heavy with E235D, D239G, D270H, G273P, Y298D, R332K
light: B1 light
B20: IL6R-BP089/IL6R-L (antibody, human IgG1)
heavy: B1 heavy with L236Y, D239G, D270H, G273P, K328A, R332K
light: B1 light

Biological target: T1, FcγRIa (human, UniProt P12314 16-292, limits assumed)
T1 construct: also called CD64
Test: SPR (Biacore), method of Example 14
T1 sequence (P12314 16-292 limits assumed): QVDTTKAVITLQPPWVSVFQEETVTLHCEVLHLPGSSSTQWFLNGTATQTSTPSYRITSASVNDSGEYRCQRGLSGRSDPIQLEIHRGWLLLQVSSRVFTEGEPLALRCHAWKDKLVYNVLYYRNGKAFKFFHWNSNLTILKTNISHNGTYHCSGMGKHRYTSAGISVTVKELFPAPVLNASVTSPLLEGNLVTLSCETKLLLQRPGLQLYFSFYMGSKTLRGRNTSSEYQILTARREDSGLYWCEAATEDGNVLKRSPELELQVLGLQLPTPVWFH

| Binder | Kd [nM] |
| --- | --- |
| B1 | 65 |
| B2 | 51 |
| B3 | 6.6 |
| B4 | 7.6 |
| B5 | 6.3 |
| B6 | 95 |
| B7 | 6.4 |
| B8 | 5.2 |
| B9 | 7.7 |

Biological target: T2, FcγRIIa type R (human, UniProt P12318 36-217)
T2 construct: also called FcγRIIaR; FcγRIIa(R)
T2 chain: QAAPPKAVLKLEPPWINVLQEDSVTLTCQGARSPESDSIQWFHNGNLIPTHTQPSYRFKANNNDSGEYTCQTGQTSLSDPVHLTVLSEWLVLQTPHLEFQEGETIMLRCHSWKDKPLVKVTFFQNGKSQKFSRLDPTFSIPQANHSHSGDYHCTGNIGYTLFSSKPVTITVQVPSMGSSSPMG
Test: SPR (Biacore), method of Example 14

| Binder | Kd [nM] |
| --- | --- |
| B1 | 1000 |
| B2 | 840 |
| B3 | 2600 |
| B4 | 4500 |
| B6 | 1200 |
| B8 | 3500 |
| B9 | 3500 |

Biological target: T3, FcγRIIa type H (human, UniProt P12318 36-217)
T3 construct: also called FcγRIIaH; FcγRIIa(H)
T3 sequence: T2 chain with R133H
Test: SPR (Biacore), method of Example 14

| Binder | Kd [µM] |
| --- | --- |
| B1 | 95 |
| B2 | 69 |
| B3 | 32 |
| B4 | 21 |
| B5 | 25 |
| B6 | 92 |
| B7 | 26 |
| B8 | 22 |
| B9 | 28 |

Biological target: T4, FcγRIIb (human, UniProt P31994 43-217, limits assumed)
T4 construct: also called FcγIIB; CD32
T4 sequence: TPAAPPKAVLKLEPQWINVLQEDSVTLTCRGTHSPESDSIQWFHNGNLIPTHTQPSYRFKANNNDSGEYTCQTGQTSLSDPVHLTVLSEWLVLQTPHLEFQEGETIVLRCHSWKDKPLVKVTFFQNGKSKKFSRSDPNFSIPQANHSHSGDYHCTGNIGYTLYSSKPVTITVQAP
Test: SPR (Biacore), method of Example 14

| Binder | Kd [nM] |
| --- | --- |
| B1 | 39 |
| B2 | 40 |
| B3 | 110 |
| B4 | 250 |
| B5 | 120 |
| B6 | 64 |
| B7 | 490 |
| B8 | 170 |
| B9 | 160 |

Biological target: T5, FcγRIa (human, UniProt P12314 16-292, limits assumed)
T5 construct: also called FcgRIa; CD64
Test: SPR (Biacore), FcγR over captured antibody
T5 sequence (P12314 16-292 limits assumed): as the sequence (P12314 16-292 limits assumed) above

| Binder | Kd [nM] |
| --- | --- |
| B10 | 6.4 |
| B11 | 5.3 |
| B12 | 6.6 |

Biological target: T6, FcγRIIa type H (human, UniProt P12318 36-217)
T6 construct: also called FcγRIIaH; FcγRIIH
T6 sequence: T2 chain with R133H
Test: SPR (Biacore), FcγR over captured antibody

| Binder | Kd [µM] |
| --- | --- |
| B10 | 86 |
| B11 | 93 |
| B12 | 38 |

Biological target: T7, FcγRIIb (human, UniProt P31994 43-217, limits assumed)
T7 construct: also called FcgRIIb; FcγIIB
T7 sequence: T4 sequence
Test: SPR (Biacore), FcγR over captured antibody

| Binder | Kd [nM] |
| --- | --- |
| B10 | 930 |
| B11 | 1200 |
| B12 | 800 |

Biological target: T8, FcγRIIIa type V (human, UniProt P08637 17-208, limits assumed)
T8 construct: also called FcγRIIIaV; FcgRIIIaV
Test: SPR (Biacore), FcγR over captured antibody
T8 sequence (P08637 other isoform, or with tags, fused parts or gaps limits assumed): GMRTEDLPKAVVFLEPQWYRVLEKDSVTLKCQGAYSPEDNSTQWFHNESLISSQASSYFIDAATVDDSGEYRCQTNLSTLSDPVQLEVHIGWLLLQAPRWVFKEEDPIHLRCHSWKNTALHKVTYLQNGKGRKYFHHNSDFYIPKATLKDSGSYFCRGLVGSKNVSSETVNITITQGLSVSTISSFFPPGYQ

| Binder | Kd [µM] |
| --- | --- |
| B10 | 53 |
| B11 | 110 |
| B12 | 69 |

Biological target: T9, FcγRIIb (human, UniProt P31994 43-217, limits assumed)
T9 construct: SPR analyte; also called FcγIIB; CD32
T9 sequence: T4 sequence
Test: ratio of SPR KDs; reference IL6R-B3/IL6R-L
Source text: (§1) Furthermore, KD(IIaR)/KD(IIb) and KD(IIaH)/KD(IIb) in the table respectively represent the value obtained by dividing the KD value of each variant for FcγRIIaR by the KD value of each variant for FcγRIIb, and the value obtained by dividing the KD value of each variant for FcγRIIaH by the KD value of each variant for FcγRIIb. KD(IIb) of the parent polypeptide/KD(IIb) of the altered polypeptide refers to the value obtained by dividing the KD value of the parent polypeptide for FcγRIIb by the KD value of each variant for FcγRIIb.

| Binder | KD(IIb) of the parent polypeptide/KD(IIb) of altered polypeptide |
| --- | --- |
| B13 | 3.9 |
| B14 | 8.4 |
| B15 | 9.1 |
| B16 | 19.3 |
| B17 | 8.6 |
| B18 | 41.4 |
| B19 | 6 |
| B20 | 8 |

Biological target: T4, FcγRIIb
Test: ratio of SPR KD values, parent IL6R-B3/IL6R-L
Source text: as §1

| Binder | KD(IIb) of the parent polypeptide/KD(IIb) of altered polypeptide [fold] |
| --- | --- |
| B1 | 78.4 |
| B2 | 77.1 |
| B3 | 27.3 |
| B4 | 12.2 |
| B5 | 25.5 |
| B6 | 48.4 |
| B7 | 6.3 |
| B8 | 18.7 |
| B9 | 19.4 |

Biological target: T10, FcγRIa (human, UniProt P12314 16-292, limits assumed)
T10 construct: SPR analyte; also called CD64
Test: SPR (Biacore), antibody captured, FcγR analyte
T10 sequence (P12314 16-292 limits assumed): as the sequence (P12314 16-292 limits assumed) above
Source text: as §1

| Binder | Kd [nM] |
| --- | --- |
| B13 | 37 |
| B14 | 15 |
| B15 | 120 |
| B16 | 7.5 |
| B17 | 7.3 |
| B18 | 89 |
| B19 | 25 |
| B20 | 63 |

Biological target: T11, FcγRIIa type R (human, UniProt P12318 36-217)
T11 construct: SPR analyte; also called FcγRIIaR; FcγRIIa(R)
T11 chain: T2 chain
Test: SPR (Biacore), antibody captured, FcγR analyte
Source text: as §1

| Binder | Kd [µM] |
| --- | --- |
| B13 | 6.9 |
| B14 | 8 |
| B15 | 3.4 |
| B16 | 3.2 |
| B17 | 6.9 |
| B18 | 1.1 |
| B19 | 15 |
| B20 | 6.4 |

Biological target: T12, FcγRIIa type H (human, UniProt P12318 36-217)
T12 construct: SPR analyte; also called FcγRIIaH
T12 sequence: T2 chain with R133H
Test: SPR (Biacore), antibody captured, FcγR analyte
Source text: as §1

| Binder | Kd [µM] |
| --- | --- |
| B13 | 36 |
| B14 | 30 |
| B15 | 17 |
| B16 | 26 |
| B17 | 30 |
| B18 | ~7 |
| B19 | 40 |
| B20 | 20 |

Biological target: T9, FcγRIIb
Test: SPR (Biacore), antibody captured, FcγR analyte
Source text: as §1

| Binder | Kd [nM] |
| --- | --- |
| B13 | 790 |
| B14 | 370 |
| B15 | 340 |
| B16 | 160 |
| B17 | 360 |
| B18 | 75 |
| B19 | 520 |
| B20 | 390 |

Biological target: T13, FcγRIIIa type V (human, UniProt P08637 17-208, limits assumed)
T13 construct: SPR analyte; allotype V158 was used here; also called FcγRIIIaV; FcγRIIIa(V)
Test: SPR (Biacore), antibody captured, FcγR analyte
T13 sequence (P08637 other isoform, or with tags, fused parts or gaps limits assumed): as the sequence (P08637 other isoform, or with tags, fused parts or gaps limits assumed) above
Source text: as §1

| Binder | Kd [µM] |
| --- | --- |
| B13 | 55 |
| B14 | 58 |
| B15 | 45 |
| B16 | 57 |
| B17 | 54 |
| B18 | 30 |
| B19 | 75 |
| B20 | 51 |
